In paper PMC5714209 one finds stoichiometry N data, which are given here for one substance.

This assay deals with A3B 193 CTD (human) (UniProt Q9UH17). As to the kind of experiment: SEC. For orientation: In gel filtration, larger molecules generally elute earlier.

Broadly, the stoichiometry N is the number of molecules, sites or subunits per partner or assembly. Consider “A3B 193 CTD (from UniProt Q9UH17 193-382) (domain or fragment)”, for which the stoichiometry N was 2.
